Molecular target: T1, β-catenin (UniProt P35222 1-781)
T1 sequence (looked up): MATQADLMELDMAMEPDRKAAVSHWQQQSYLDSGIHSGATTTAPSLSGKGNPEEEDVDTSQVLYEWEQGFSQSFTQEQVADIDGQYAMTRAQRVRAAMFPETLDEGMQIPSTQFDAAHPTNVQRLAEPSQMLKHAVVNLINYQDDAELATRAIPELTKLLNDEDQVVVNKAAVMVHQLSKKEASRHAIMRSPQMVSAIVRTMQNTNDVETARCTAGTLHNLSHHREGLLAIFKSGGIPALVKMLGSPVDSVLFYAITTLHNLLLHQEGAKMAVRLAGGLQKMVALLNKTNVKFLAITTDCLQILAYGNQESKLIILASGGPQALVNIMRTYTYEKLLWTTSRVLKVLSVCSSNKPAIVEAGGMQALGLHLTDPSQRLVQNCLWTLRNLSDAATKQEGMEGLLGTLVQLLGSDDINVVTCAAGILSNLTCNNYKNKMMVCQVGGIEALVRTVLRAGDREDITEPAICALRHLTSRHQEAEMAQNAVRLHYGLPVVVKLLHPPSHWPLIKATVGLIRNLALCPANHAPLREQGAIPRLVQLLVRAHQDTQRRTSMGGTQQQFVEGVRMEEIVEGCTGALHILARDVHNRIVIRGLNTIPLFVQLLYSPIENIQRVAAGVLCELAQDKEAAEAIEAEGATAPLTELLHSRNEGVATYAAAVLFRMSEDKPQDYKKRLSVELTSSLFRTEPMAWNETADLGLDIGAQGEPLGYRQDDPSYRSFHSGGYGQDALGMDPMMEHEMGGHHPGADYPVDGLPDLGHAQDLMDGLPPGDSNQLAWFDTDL
Test: cell-based or functional assay

B1: SnP_8 uAb (designed binder)
chain: PTAPPYDSLLVFDYEGGSGSGRLNFGDDIPSALRIAKKKRWNSIEERRIHQESELHSYLSRLIAAERERELEECQRNHEGDEDDSHVRAQQACIEAKHDKYMADMDELFSQVDEKRKKRDIPDYLCGKISFELMREPCITPSGITYDRKDIEEHLQRVGHFDPVTRSPLTQEQLIPNLAMKEVIDAFISENGWVEDY
modifications: biotinylated with EZ-Link NHS-Biotin
B1 was tested, and the “degradation of endogenous cytosolic β-catenin in transfected DLD1 cells (immunoblot densitometry, relative to non-transfected control)” value was greater than 60%.

— publication PMC10598214, “SaLT&PepPr is an interface-predicting language model for designing peptide-guided protein degraders” (Communications Biology, 2023)
